Where only a bound is given, the exact number is not on record here.

Drawing on patent US5843749, “Ehk and Ror tyrosine kinases” (Regeneron Pharmaceuticals, Inc., dated 1998), this text covers binding result, dose-response survival assay of trkB-expressing NIH3T3 cells, concentration and dose-response survival assay of trkB-expressing NIH3T3 cells, effectiveness against BDNF for three molecules.

Assay [1] deals with human low affinity nerve growth factor receptor (LNGFR) (human, UniProt P08138). Description: competition of cross-linking, competitor 125I-NT-3, pCMX-LNGFR COS cells.
For assay [2], the target named is rat trkB (full-length, pCMX-trkB or pLTR-trkB) (rat) (UniProt Q63604).
For assay [3], the target named is rat trkB (full-length, pCMX-trkB or pLTR-trkB) (rat, UniProt Q63604). Description: DSS cross-linking of 125I-NGF to COS cells transfected with pCMX-trkB. On the procedure: COS-M5 cells were transiently transfected with either the pCMX-LNGFR, pCMX-trkB, or control vector (pCMX) by the DEAE-dextran transfection protocol. Briefly, COS-M5 cells were plated at a density of 1.5 ×10^6 cells per 100 mm plate 24 hours prior to transfection. For transfection, the cells were cultured in serum-free DMEM containing 400 μg/ml of DEAE-dextran, 1 μM chloroquine, 2 mM glutamine, 20 μg/ml insulin, 5 μg/ml transferrin, 33 nM sodium selenite, and 5 μg of the appropriate DNA for 3 hours and 15 minutes at 37° C. in an atmosphere of 5% CO2. The transfection media was aspirated and replaced with phosphate-buffered saline with 10% DMSO for 2 min. Following this DMSO "shock", the COS-M5 cells were placed into DMEM with 10% FBS, 1% each of penicillin and streptomycin, and 2 mM glutamine for 48 hours.
Cells were harvested in phosphate-buffered saline containing 1 mM EDTA, 1 mg/ml glucose and 25 mM HEPES (PBS-versene) and resuspended at an appropriate density (generally 1 ×10^6 cells per ml) in ice-cold binding buffer A (PBS containing 1 mg/ml each of BSA and glucose). pCMX-trkB or pCMX vector transfected COS-M5 cells (4 ×10^5 cells) were incubated on ice with ^125I-labeled neurotrophins (final concentration estimated to be between 0.1 and 0.25 nM) for 90 minutes in the absence or presence of unlabeled NGF, BDNF or NT-3 (see FIGS. 1 and 3). […]

B1: neurotrophin-3 (human NT-3, produced in CHO cells) (ligand)
chain: YAEHKSHRGEYSVCDSESLWVTDKSSAIDIRGHQVTVLGEIKTGNSPVKQYFYETRCKEARPVKNGCRGIDDKHWNSQCKTSQTYVRALTSENNKLVGWRWIRIDTSCVCALSRKIGRT
modifications: radioiodinated (125I, lactoperoxidase method) where used as the labeled ligand
As to B1, the binding result in assay [1] is recorded as “binds”. In assay [2], this molecule yielded a dose-response survival assay of trkB-expressing NIH3T3 cells, concentration at which effects are discernible of 50 pM and a dose-response survival assay of trkB-expressing NIH3T3 cells, effectiveness against BDNF of under 10 fold.

B2: Murine 2.5S NGF (ligand)
chain: SSTHPVFHMGEFSVCDSVSVWVGDKTTATDIKGKEVTVLAEVNINNSVFRQYFFETKCRASNPVESGCRGIDSKHWNSYCTTTHTFVKALTTDEKQAAWRFIRIDTACVCVLSRKATR
modifications: radioiodinated (125I, lactoperoxidase method) where used as the labeled ligand
As for B2, the binding result in assay [3] is “no binding”.

B3: brain derived neurotrophic factor (human BDNF, produced in CHO cells) (ligand)
chain: HSDPARRGELSVCDSISEWVTAADKKTAVDMSGGTVTVLEKVPVSKGQLKQYFYETKCNPMGYTKEGCRGIDKRHWNSQCRTTQSYVRALTMDSKKRIGWRFIRIDTSCVCTLTIKRGR
modifications: radioiodinated (125I, lactoperoxidase method) where used as the labeled ligand
For the molecule B3, in assay [1], the binding result is “binds”. The dose-response survival assay of trkB-expressing NIH3T3 cells, concentration at which activity is obvious in assay [2] was 0.5 to 5 pM.
